Data taken from article doi:10.1101/2023.08.28.555102 (bioRxiv, 2023).
Substitutions are numbered along the chain they refer to.

Experiments:
Experiment in all cases: ITC
[1] = molecular target: T1, tH2 (aa91-189) mutant R^125R^126A (vaccinia virus, UniProt P08583 91-189, R^125R^126A | R^125R^126A)
T1 sequence: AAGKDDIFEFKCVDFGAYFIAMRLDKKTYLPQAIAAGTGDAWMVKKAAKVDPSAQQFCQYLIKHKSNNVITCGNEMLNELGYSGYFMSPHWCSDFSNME

[2] = molecular target: T2, tH2 (aa91-189) mutant D^130A (vaccinia virus, UniProt P08583 91-189, D^130A)
T2 sequence: T1 sequence with A35R, A36R, D40A

[3] = molecular target: T3, tH2 (aa91-189) mutant K^116K^117A (vaccinia virus, UniProt P08583 91-189, K^116K^117A | K^116K^117A)
T3 sequence: T1 sequence with K26A, K27A, A35R, A36R

[4] = molecular target: T4, tH2 (aa91-189) mutant G^127G^129A (vaccinia virus, UniProt P08583 91-189, G^127G^129A | G^127G^129A)
T4 sequence: T1 sequence with A35R, A36R, G37A, G39A

[5] = molecular target: T5, tH2 (aa91-189) mutant W^132A (vaccinia virus, UniProt P08583 91-189, W^132A)
T5 sequence: T1 sequence with A35R, A36R, W42A

[6] = molecular target: T6, tH2 (aa91-189) mutant D^141A (vaccinia virus, UniProt P08583 91-189, D^141A)
T6 sequence: T1 sequence with A35R, A36R, D51A

B1: recombinant A28 (aa56-146) (domain or fragment)
chain: DRRVQDVNDTISDVKQKWRCVVYPGNGFVSASIFGFQAEVGPNNTRSIRKFNTMQQCIDFTFSDVININIYNPCVVPNINNAECQFLKSVL
~5.3 µM: Kd [3]
binds: binding result [1] | binding result [2] | binding result [4] | binding result [5] | binding result [6]
